# Experimental data: patent US20240287172A1 (SCIRHOM, published 2024)
# Tests used:
# [1] = molecular target: T1, hiR2-FL-L539A-T7 (human, UniProt Q6PJF5 1-856); assay: FACS on MEF-DKO-hiR2-FL-L539A-T7 cells
# T1 construct: on MEF-DKO cells
# T1 sequence: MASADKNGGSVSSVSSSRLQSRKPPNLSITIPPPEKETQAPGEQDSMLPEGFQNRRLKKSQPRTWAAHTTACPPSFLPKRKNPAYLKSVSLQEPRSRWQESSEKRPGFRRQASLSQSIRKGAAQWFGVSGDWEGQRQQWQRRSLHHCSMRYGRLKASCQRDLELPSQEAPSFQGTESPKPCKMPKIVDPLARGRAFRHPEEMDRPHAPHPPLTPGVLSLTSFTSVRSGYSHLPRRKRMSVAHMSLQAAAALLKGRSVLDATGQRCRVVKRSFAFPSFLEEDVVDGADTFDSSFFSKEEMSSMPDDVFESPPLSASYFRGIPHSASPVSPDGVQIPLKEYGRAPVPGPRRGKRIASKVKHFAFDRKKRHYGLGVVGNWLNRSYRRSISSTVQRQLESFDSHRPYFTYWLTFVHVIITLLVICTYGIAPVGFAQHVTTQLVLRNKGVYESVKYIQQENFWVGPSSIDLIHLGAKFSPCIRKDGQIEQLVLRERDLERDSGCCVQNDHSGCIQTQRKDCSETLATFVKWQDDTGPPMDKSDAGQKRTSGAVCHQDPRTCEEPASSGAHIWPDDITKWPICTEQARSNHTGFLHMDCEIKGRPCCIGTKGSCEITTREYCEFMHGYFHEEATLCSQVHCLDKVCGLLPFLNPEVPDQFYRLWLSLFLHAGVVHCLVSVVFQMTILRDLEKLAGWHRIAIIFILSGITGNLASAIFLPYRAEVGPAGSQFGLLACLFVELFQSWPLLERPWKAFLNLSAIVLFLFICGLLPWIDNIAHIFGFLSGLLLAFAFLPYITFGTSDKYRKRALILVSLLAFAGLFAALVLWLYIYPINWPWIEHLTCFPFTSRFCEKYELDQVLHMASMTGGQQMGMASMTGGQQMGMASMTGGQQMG
# [2] = molecular target: T2, hiR2-FL-D538L-T7 (human, UniProt Q6PJF5 1-856); assay: FACS, MEF-DKO cells, 3 µg/ml
# T2 sequence: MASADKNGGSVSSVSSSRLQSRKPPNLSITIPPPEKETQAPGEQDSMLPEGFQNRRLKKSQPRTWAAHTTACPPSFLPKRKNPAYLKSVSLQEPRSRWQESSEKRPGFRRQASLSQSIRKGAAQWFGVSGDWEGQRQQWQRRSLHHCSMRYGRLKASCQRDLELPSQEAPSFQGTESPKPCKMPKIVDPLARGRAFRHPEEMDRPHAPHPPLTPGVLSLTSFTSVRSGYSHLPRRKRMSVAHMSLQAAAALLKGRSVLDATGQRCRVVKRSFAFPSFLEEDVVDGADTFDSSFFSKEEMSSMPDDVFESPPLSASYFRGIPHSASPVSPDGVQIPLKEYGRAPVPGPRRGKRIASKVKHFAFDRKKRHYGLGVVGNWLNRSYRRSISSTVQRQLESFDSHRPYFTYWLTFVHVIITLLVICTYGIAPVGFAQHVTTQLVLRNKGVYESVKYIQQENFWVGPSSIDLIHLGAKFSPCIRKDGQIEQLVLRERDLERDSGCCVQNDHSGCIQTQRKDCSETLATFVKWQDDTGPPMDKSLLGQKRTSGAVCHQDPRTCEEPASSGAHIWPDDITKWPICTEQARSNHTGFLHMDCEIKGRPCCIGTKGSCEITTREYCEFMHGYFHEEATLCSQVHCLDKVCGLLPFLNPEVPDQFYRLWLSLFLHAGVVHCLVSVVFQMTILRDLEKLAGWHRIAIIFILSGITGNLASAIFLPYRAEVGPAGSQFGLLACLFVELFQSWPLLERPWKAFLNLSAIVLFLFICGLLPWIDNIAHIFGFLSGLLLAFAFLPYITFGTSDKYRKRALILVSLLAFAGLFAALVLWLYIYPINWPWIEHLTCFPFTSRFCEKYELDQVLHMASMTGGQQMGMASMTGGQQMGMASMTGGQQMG
# [3] = molecular target: T3, hiR2-FL-D515E-T7 (human, UniProt Q6PJF5 1-856); assay: FACS, MEF-DKO cells, 3 µg/ml
# T3 sequence: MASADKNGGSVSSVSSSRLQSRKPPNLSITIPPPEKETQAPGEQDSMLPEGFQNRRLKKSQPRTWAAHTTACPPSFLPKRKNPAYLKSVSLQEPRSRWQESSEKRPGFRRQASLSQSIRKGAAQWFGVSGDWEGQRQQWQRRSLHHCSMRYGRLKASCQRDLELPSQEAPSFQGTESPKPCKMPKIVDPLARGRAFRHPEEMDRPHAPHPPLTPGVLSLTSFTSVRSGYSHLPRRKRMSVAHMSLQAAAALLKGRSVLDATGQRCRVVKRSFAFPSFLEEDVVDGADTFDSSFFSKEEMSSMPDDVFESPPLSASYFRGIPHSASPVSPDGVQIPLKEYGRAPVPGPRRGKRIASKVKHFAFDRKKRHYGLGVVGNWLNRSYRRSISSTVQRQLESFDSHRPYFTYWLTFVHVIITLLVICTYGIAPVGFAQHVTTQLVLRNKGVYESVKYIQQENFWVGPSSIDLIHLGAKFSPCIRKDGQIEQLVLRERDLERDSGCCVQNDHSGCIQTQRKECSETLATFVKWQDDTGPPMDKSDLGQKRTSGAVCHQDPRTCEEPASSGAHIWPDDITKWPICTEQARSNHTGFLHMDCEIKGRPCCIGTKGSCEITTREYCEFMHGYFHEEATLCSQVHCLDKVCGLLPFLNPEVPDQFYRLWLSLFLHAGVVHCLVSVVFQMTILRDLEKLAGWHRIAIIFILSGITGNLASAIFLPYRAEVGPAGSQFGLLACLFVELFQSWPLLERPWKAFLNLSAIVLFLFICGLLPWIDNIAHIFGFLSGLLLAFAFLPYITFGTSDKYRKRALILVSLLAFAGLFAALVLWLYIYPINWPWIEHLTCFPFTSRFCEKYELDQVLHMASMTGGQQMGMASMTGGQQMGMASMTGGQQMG
Binder,binding result [1],loss of binding vs wild type [2],loss of binding vs wild type [3]
"antibody 3 (antibody, V domains shown, mouse IgG, kappa light chain; also called clone #3; purified antibody 3) VH: QVTLKESGPGILQPSQTLSLTCSFSGFSLTTFAMGIGWVRQPSGKGLEWLAHIWWDGEKYNNPVLKSRLTISKDTSKNQVFLRIANVDTPDTATYYCARISSIYYIIDNWGQGTSVTVSS VL: DIVLTQSPATLSVTPGHSVSLSCRASQSISNNLHWYQKKSHESPRLLIKYVSQSISGIPSRFSGSGSGTDFTLSINSVETEDFGMYFCQQSYNWPLTFGAGTKLELK",no binding (tested: 3 µg/ml),,
"antibody 48 (antibody, V domains shown, mouse IgG, kappa light chain; also called clone #48; purified antibody 48) VH: QVQLQQSGTELVRPGTSVKVSCKASGYAFTNYLIEWVKQRPGQGLEWIGVINPGSGFTKYNEKFKGKATLTADKSSSTVYMHLSSLTSEDSAVYFCARGLYRAMDYWGQGTSVTVSS VL: DIQMTQSPASQSASLGESVTITCLASQTIATWLAWYQQKPGKSPQLLIYGATTLADGVPSRFSGGGSGTKFSFKISSLQAEDFVSYYCQQLYSTPYTFGGGTKLEIK",,≥ 30%,≥ 30%
